Measured values: publication PMC12630357 (The Journal of Biological Chemistry, 2025)

Molecular target: T1, 6xHis-CotV (Bacillus subtilis 168, UniProt Q08309 1-128)
T1 construct: CotV, spore coat (crust) protein of Bacillus subtilis strain 168; native ORF printed as 129 residues; residues 1-125 resolved in the model; Forms a helical filament; the number of copies is not fixed; also called 6xHis-tagged CotV; CotV1; source: E. coli BL21(DE3), coexpressed with CotW from pET-DUET, Ni-NTA purified as the CotVW complex; not shown: 6xHis (within an N-terminal extension of 14 …)
T1 sequence (looked up): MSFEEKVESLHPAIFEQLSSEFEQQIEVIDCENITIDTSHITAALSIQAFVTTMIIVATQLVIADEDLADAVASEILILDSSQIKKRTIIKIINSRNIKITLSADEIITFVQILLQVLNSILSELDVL
Assay: cryo-EM structure; helical reconstruction of 6xHis-tagged CotVW filaments, 3.32 Å; twist 153.09°, rise 9.52 Å, one CotV-CotW heterodimer per asymmetric unit
Settings: both partners purified

B1: CotW (natural protein, Bacillus subtilis 168, UniProt Q08310 1-105, looked up)
chain: MSDNDKFKEELAKLPEVDPMTKMLVQNIFSKHGVTKDKMKKVSDEEKEMLLNLVKDLQAKSQALIENQKKKKEEAAAQEQKNTKPLSRREQLIEQIRQRRKNDNN
notes: CotW, spore coat (crust) protein of Bacillus subtilis strain 168; native ORF 105 residues; residues 18-98 resolved in the model; also called CotW1; CotW monomer; source: E. coli BL21(DE3), coexpressed with 6xHis-CotV from pET-DUET, co-purified on Ni-NTA as the CotVW complex; not shown: single added tyrosine, C-terminal, kept
stoichiometry N: 1
